From publication PMC8959180 come the findings set out here.

A word on the Kd: it is the concentration at which binding is half-saturated. The low end stands for a tighter complex, the high end for a looser complex. The koff is the rate constant with which the complex falls apart. As usually defined, the kon is a measure of how fast the partners come together. The low end stands for slow association, the high end for fast association.

For experiment [1], the target named is ReoM-His (L. monocytogenes) (UniProt P60357). In words: pull-down + cross-linking; L. monocytogenes ΔclpC strains making ReoM-His were cross-linked in vivo with formaldehyde; ReoM-His purified on MagneHis magnetic beads, decrosslinked by heat; MurA in the eluates detected by Western blot and quantified by densitometry. A general note: A western blot detects proteins with antibodies after separation by electrophoresis.

The target in experiment [2] is MurA S262L-Strep (L. monocytogenes) (UniProt Q8Y4C4). Put plainly: SPR. Background: Surface plasmon resonance follows binding to a sensor surface in real time, without labels.
For experiment [3], the target named is MurA-Strep (L. monocytogenes) (UniProt Q8Y4C4). In words: SPR.
Experiment [4] addresses MurA N197D-Strep (L. monocytogenes) (UniProt Q8Y4C4). Put plainly: SPR.

UniProt P60357, sequence (P60357 whole entry): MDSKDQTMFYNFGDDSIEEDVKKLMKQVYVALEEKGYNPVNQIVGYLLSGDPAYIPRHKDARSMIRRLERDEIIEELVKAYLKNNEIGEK

As to “MurA S262L (chromosomal allele, strain LMPR13) (from UniProt Q8Y4C4 1-430) (enzyme)”, the percent of wt MurA level copurified in experiment [1] worked out at 19%.
As for “recombinant ReoM (from UniProt P60357 1-90) (natural protein)”, in experiment [2], the Kd stood at 800 nM. In experiment [3], this substance had a Kd of 900 nM, a koff of 0.0004 s⁻¹ and a kon of 500 M⁻¹ s⁻¹. For the same substance, the Kd in experiment [4] was 700 nM.
“MurA N197D (chromosomal allele, strain LMPR14) (from UniProt Q8Y4C4 1-430) (enzyme)”: in experiment [1], the percent of wt MurA level copurified is 13%.
